Measurements taken from paper PMC8351461.

B1: 7mer dsRNA (dsRNA)
RNA 1: CACUGAC
RNA 2: GUCAGUG

Target: Nucleocapsid protein (N) (SARS-CoV-2, UniProt P0DTC9 1-419)
Assay: EMSA; no sdAb; Hill fixed at 5
Details: protein: recombinant, tags: His6 or His6-MBP N-terminal fusion vector, TEV cleavage, chain copies: 2

Binder	Kd (label: 5'-FAM, single strand) [nM]	Kd (label: 5'-FAM on strand 1, blunt) [nM]
CACUGAC (ssRNA) [7mer ssRNA]	560 ± 60	
B1		480 ± 30
